The assay concerns the target T1, HR2P-FITC (HR2P peptide labeled with FITC) (MERS-CoV, UniProt K9N5Q8 1251-1286).
T1 peptide: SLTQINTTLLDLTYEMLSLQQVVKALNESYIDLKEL
Kind of assay: native gel or EMSA. (In general: Mobility shift assays separate free from complexed probe on a gel.)

For the molecule ANKFNQALGAMQTGFTTTNEAFHKVQDAVNNNAQALSKLASE [HR1P peptide (residues 998-1039 of the MERS-CoV S protein, HR1 domain of the S2 subunit)], the binding result is reported as “binds”.
